According to PMC11785096:

Molecular target: another dynein heavy chain (unidentified second DHC of dynein-X) (Lytechinus variegatus (endogenous in sperm))
Experiment: cryo-EM structure

Q: For “DNAHX (dynein heavy chain, XP_041462850) (natural protein)”, which percent of DNAHX particles in a two-headed dynein complex (open conformation) is on record?
A: The percent of DNAHX particles in a two-headed dynein complex (open conformation) was 27%.

Q: What about the percent of DNAHX particles in phi particle dynein of the same substance?
A: Its percent of DNAHX particles in phi particle dynein is 13%.
